Experimental data from PMC4529233, “In Silico Generation of Peptides by Replica Exchange Monte Carlo: Docking-Based Optimization of Maltose-Binding-Protein Ligands” (PLoS ONE, 2015).
Where two headings read alike, the source gives them in different places. No end group written: not given here.

Key:
MBP [1] = target: T1, MBP (Escherichia coli, UniProt P0AEX9); test: Surface Plasmon Resonance, immobilized MBP, peptides as analytes; type: binding; settings: for SPR signal variations in the explored concentration range: dose response assay
T1 construct: made in house; host or cells: E. coli BL21(DE3)
Experimental: The interactions between the protein and computationally optimized peptides were measured using the BIAcore 3000 (GE Healthcare Milano, Italy). […] Residual reactive groups were deactivated by treatment with 1 M ethanolamine hydrochloride, pH 8.5. The reference channel was activated with EDC/NHS and deactivated with ethanolamine. The binding assays were carried out at 20 μL /min at 25°C, with 4.5 min contact-time. Peptides were diluted in the HBS running buffer (10 mM Hepes, 150 mM NaCl, 3 mM EDTA, pH 7.4). Analyte injections were performed at the indicated concentrations. The sensor surface was regenerated by using 1–3 washes of 10mM NaOH for 1 minute. The association phase (kon) was followed for 250s, whereas the dissociation phase (koff) was followed for 300 s. The instrument BIAevaluation analysis package (version 4.1, GE Healthcare, Milano, Italy) was used to subtract the signal of the reference channel. Conversely, an affinity steady state model was applied to fit the RUmax data versus peptides concentrations and fitting was performed with GraphPad Prism v4.00 using the one-site binding equation [53, 54].

OPPA = settings: KAK+OPPA; cited from earlier work
MBP [2] = target: T1, MBP; settings: cited from earlier work
[3] = immobilized MBP on CM5 chip, 25°C, HBS pH 7.4

Substance | KD (SPR determined) (MBP [1]; [3]) | further results
GLPKPGGN [MBP-5, computationally designed octapeptide] | CBE | –
KAK | – | experimentally determined binding energy (OPPA): -9.8 kcal/mol
PQYPPHDN [MBP-4, computationally designed octapeptide] | CBE | –
WGTNGGTR [MBP-2, computationally designed octapeptide] | CBE | –
WHPRPVWE-NH2 [MBP-8] | – | Kd (MBP [1]; immobilized MBP on CM5 chip, 25°C, HBS pH 7.4, read-out: KD (SPR determined)): 200 ± 5 µM
WSPNFWWR [MBP-7, computationally designed octapeptide] | CBE | –
YGDGYFRF [MBP-10, peptide along the minimization path of MBP-9] | No binding | SPR signal variations in the explored concentration range (MBP [1]): did not give valuable signal variations
YHDGYFRF [MBP-11, peptide along the minimization path of MBP-9] | No binding | SPR signal variations in the explored concentration range (MBP [1]): did not give valuable signal variations
maltotriose | – | experimental binding energy (MBP [2]; compared with the closed configuration score): -9.3 kcal/mol; experimental binding energy (MBP [2]; compared with the open configuration score): -8.4 kcal/mol
